Reference: US20060003399A1, “High throughput actin polymerization assay” (Cytokinetics, Inc., priority 2004, published 2006)
One block for each substance: values may come before it.

Columns and labels:
Assay in all cases: cell-based or functional assay
[1] = target: Full length human WASP, TAP-tagged at the C-terminus (Myc-WASP-TAP) (human)
[2] = target: Full length human N-WASP, TAP-tagged at the C-terminus (Myc-N-WASP-TAP) (human)
Arp2/3 complex (human) = Arp2/3 complex (human) (UniProt P61158)
[3] = target: Actin (G-actin with pyrene-actin) (chicken)

Substance: GST-Nck2
Barbed ends [1]: 2.6 nM
Barbed ends % of max. [1]: 50%
EC50 [1]: 12 nM
Barbed ends [2]: 3.5 nM
Barbed ends % of max. [2]: 78%
EC50 [2]: 7 nM

Substance: GST tagged C. albicans FH1-FH2 domain (from UniProt Q5AL52 972-1598)
lag phase of actin polymerization at 100 nM formin [3]: < 100 s
time to saturation phase of actin polymerization at 100 nM formin [3]: 400 s

Substance: His6 tagged C. albicans FH1-FH2 domain (from UniProt Q5AL52 972-1598)
formin concentration to observe saturation of actin polymerization [3]: 300 to 500 nM

Second part, the substance after the results:

EC50 [1]: 16 nM
EC50 [2]: 287 nM
Substance: GST-tev-Cdc42 (enzyme)

activity relative to 105 WASP (fold against 105 WASP) (Arp2/3 complex (human)): 20
concentration giving maximal concentration of barbed ends (500 nM Cdc42, 2.5 nM Arp2/3, 3.5 uM actin) (Arp2/3 complex (human)): 3 nM
potency relative to the VCA/WA domain (fold against VCA/WA domain) (Arp2/3 complex (human)): > 70
Substance: Full length human WASP, TAP-tagged at the C-terminus (Myc-WASP-TAP)
